This passage reports Kd results from doi:10.1101/2025.11.18.689095 (2025).

Values joined by “and” are separate entries in the source; they are usually repeats but may differ in a detail not shown here. Equal values may be shown once. Read-outs that look alike come from different tables or passages of the source. Where no end group is shown, it is not given here.

Test [1] deals with T1, Tom70:Orf9b_(Helix) complex (human | SARS-CoV-2, UniProt O94826 108-608).
T1 chain 1: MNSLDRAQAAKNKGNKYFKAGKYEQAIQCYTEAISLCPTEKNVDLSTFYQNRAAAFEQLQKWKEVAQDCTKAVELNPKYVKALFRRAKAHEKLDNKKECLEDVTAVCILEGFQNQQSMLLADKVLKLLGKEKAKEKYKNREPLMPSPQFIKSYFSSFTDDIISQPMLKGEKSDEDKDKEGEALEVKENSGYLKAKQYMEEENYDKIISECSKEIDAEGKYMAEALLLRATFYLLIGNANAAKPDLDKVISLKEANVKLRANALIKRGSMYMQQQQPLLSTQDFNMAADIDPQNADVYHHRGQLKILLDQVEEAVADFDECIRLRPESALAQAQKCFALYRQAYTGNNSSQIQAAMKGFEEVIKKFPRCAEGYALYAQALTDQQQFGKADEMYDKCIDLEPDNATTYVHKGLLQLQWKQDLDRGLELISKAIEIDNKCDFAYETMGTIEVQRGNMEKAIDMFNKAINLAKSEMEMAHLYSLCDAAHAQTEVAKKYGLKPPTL
T1 chain 2: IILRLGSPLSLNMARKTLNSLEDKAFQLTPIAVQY
The experiment in a line: ITC. On the technique in general: ITC needs no label: the signal is the heat of the interaction.

The target of test [2] is T1, Tom70:Orf9b_(Helix) complex. The experiment in a line: ITC.
Test [3] has as its target T2, human Tom70 (residues 108–608) (human, UniProt O94826 108-608).
T2 chain: T1 chain 1
The experiment in a line: ITC.

Test [4] addresses T2, human Tom70 (residues 108–608). Description: ITC; run 1.
The target is the same in test [5]. Description: ITC; run 2.
The target is the same in test [6]. Description: ITC; run 3.
For test [7] the target is unchanged. Description: ITC; average.

B1: Hsp90_(EEVD) peptide (peptide)
peptide: YDTSRMEEVD-OH
Regarding B1, the Kd in test [1] was 12.4 µM and 12.8 µM and 12.3 µM and 11.8 µM; in test [2], 12 µM; in test [3] it was 12 µM; in test [4] it was 12.8 µM; in test [5], 10.9 µM; in test [6] it was 11.9 µM. Further, in test [7], the Kd amounted to 11.9 µM.

Broadly, the Kd is the constant that tells how readily two partners part at equilibrium. The low end stands for tighter binding, the high end for weaker binding.
